The record followed here is paper PMC10786891, “Massively parallel profiling of RNA-targeting CRISPR-Cas13d”.

Sequences and labels used below:
T1: EsCas13d, nuclease-dead (Eubacterium siraeum, UniProt B0MS50, R295A;H300A;R849A;H854A)
T1 sequence: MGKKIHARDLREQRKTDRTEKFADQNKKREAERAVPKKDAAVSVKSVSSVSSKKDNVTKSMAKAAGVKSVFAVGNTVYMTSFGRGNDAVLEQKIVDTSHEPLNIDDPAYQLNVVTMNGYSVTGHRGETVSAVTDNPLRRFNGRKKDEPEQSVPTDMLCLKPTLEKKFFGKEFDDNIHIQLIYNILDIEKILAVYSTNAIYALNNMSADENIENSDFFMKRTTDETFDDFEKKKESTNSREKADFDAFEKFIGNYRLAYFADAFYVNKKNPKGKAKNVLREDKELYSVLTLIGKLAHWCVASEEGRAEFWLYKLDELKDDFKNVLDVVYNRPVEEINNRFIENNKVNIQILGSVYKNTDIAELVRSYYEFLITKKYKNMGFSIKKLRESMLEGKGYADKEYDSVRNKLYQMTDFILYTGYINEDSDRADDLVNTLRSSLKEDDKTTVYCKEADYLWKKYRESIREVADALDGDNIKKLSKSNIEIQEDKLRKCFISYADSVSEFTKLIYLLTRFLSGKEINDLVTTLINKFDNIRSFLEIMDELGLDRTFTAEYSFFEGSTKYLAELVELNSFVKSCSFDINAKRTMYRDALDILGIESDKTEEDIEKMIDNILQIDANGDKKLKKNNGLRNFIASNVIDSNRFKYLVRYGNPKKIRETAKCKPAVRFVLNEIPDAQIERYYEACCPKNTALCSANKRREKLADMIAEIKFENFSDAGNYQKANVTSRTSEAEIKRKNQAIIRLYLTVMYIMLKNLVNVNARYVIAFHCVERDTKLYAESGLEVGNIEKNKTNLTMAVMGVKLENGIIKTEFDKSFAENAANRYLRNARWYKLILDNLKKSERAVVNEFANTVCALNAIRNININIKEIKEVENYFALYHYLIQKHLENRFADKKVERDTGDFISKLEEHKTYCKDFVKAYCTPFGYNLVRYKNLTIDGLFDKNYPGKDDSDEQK

B1: target 1 insA 3' of 21,insU 3' of 13 (mixed)
RNA 1: CACCCGUGCAAAAAUGCAGGGGUCUAAAACUGAGCGGAUAACCUCUCUAUGG
RNA 2: GGGAAUGGAUCCACAUCUACGAAUUCGUACCAAUAGAGAGUGUUAUCCGCUCACCGAGAUCGGAAGAGCACACGU
B2: target 1 U3G,U19A (mixed)
RNA 1: CACCCGUGCAAAAAUGCAGGGGUCUAAAACUGAGCGGAUAACCUCUCUAUGG
RNA 2: GGGAAUGGAUCCACAUCUACGAAUUCGUACCAAAGAGAGGUUAUCCGCGCACCGAGAUCGGAAGAGCACACGU
B3: target 2 MT 5'PFS GCA 3'PFS UCU (mixed)
RNA 1: CACCCGUGCAAAAUUGCAGGGGUCUAAAACCUUCUCCAAAUUGUUUCAUCCU
RNA 2: GGGAAUGGAUCCACAUCUACGAAUUCGCAAGGAUGAAACAAUUUGGAGAAGUCUAGAUCGGAAGAGCACACGU
B4: target 2 MT 5'PFS CAU 3'PFS UAC (mixed)
RNA 1: CACCCGUGCAAAAUUGCAGGGGUCUAAAACCUUCUCCAAAUUGUUUCAUCCU
RNA 2: GGGAAUGGAUCCACAUCUACGAAUUCCAUAGGAUGAAACAAUUUGGAGAAGUACAGAUCGGAAGAGCACACGU
B5: target 2 MT 5'PFS GGU 3'PFS CUG (mixed)
RNA 1: CACCCGUGCAAAAUUGCAGGGGUCUAAAACCUUCUCCAAAUUGUUUCAUCCU
RNA 2: GGGAAUGGAUCCACAUCUACGAAUUCGGUAGGAUGAAACAAUUUGGAGAAGCUGAGAUCGGAAGAGCACACGU
B6: target 2 MT 5'PFS AGG 3'PFS ACG (mixed)
RNA 1: CACCCGUGCAAAAUUGCAGGGGUCUAAAACCUUCUCCAAAUUGUUUCAUCCU
RNA 2: GGGAAUGGAUCCACAUCUACGAAUUCAGGAGGAUGAAACAAUUUGGAGAAGACGAGAUCGGAAGAGCACACGU
B7: target 2 MT 5'PFS CAU 3'PFS UAU (mixed)
RNA 1: CACCCGUGCAAAAUUGCAGGGGUCUAAAACCUUCUCCAAAUUGUUUCAUCCU
RNA 2: GGGAAUGGAUCCACAUCUACGAAUUCCAUAGGAUGAAACAAUUUGGAGAAGUAUAGAUCGGAAGAGCACACGU
B8: target 2 MT 5'PFS GAG 3'PFS CUG (mixed)
RNA 1: CACCCGUGCAAAAUUGCAGGGGUCUAAAACCUUCUCCAAAUUGUUUCAUCCU
RNA 2: GGGAAUGGAUCCACAUCUACGAAUUCGAGAGGAUGAAACAAUUUGGAGAAGCUGAGAUCGGAAGAGCACACGU
B9: target 2 MT 5'PFS CGA 3'PFS UCA (mixed)
RNA 1: CACCCGUGCAAAAUUGCAGGGGUCUAAAACCUUCUCCAAAUUGUUUCAUCCU
RNA 2: GGGAAUGGAUCCACAUCUACGAAUUCCGAAGGAUGAAACAAUUUGGAGAAGUCAAGAUCGGAAGAGCACACGU
B10: target 2 MT 5'PFS CUU 3'PFS UCG (mixed)
RNA 1: CACCCGUGCAAAAUUGCAGGGGUCUAAAACCUUCUCCAAAUUGUUUCAUCCU
RNA 2: GGGAAUGGAUCCACAUCUACGAAUUCCUUAGGAUGAAACAAUUUGGAGAAGUCGAGAUCGGAAGAGCACACGU
B11: target 2 MT 5'PFS UUU 3'PFS CCG (mixed)
RNA 1: CACCCGUGCAAAAUUGCAGGGGUCUAAAACCUUCUCCAAAUUGUUUCAUCCU
RNA 2: GGGAAUGGAUCCACAUCUACGAAUUCUUUAGGAUGAAACAAUUUGGAGAAGCCGAGAUCGGAAGAGCACACGU
B12: target 2 MT 5'PFS GAG 3'PFS CUC (mixed)
RNA 1: CACCCGUGCAAAAUUGCAGGGGUCUAAAACCUUCUCCAAAUUGUUUCAUCCU
RNA 2: GGGAAUGGAUCCACAUCUACGAAUUCGAGAGGAUGAAACAAUUUGGAGAAGCUCAGAUCGGAAGAGCACACGU
B13: target 2 MT 5'PFS GUA 3'PFS UUU (mixed)
RNA 1: CACCCGUGCAAAAUUGCAGGGGUCUAAAACCUUCUCCAAAUUGUUUCAUCCU
RNA 2: GGGAAUGGAUCCACAUCUACGAAUUCGUAAGGAUGAAACAAUUUGGAGAAGUUUAGAUCGGAAGAGCACACGU
B14: target 2 MT 5'PFS GCU 3'PFS CAC (mixed)
RNA 1: CACCCGUGCAAAAUUGCAGGGGUCUAAAACCUUCUCCAAAUUGUUUCAUCCU
RNA 2: GGGAAUGGAUCCACAUCUACGAAUUCGCUAGGAUGAAACAAUUUGGAGAAGCACAGAUCGGAAGAGCACACGU
B15: target 2 MT 5'PFS AGU 3'PFS AUU (mixed)
RNA 1: CACCCGUGCAAAAUUGCAGGGGUCUAAAACCUUCUCCAAAUUGUUUCAUCCU
RNA 2: GGGAAUGGAUCCACAUCUACGAAUUCAGUAGGAUGAAACAAUUUGGAGAAGAUUAGAUCGGAAGAGCACACGU
B16: target 2 MT 5'PFS CAU 3'PFS UAG (mixed)
RNA 1: CACCCGUGCAAAAUUGCAGGGGUCUAAAACCUUCUCCAAAUUGUUUCAUCCU
RNA 2: GGGAAUGGAUCCACAUCUACGAAUUCCAUAGGAUGAAACAAUUUGGAGAAGUAGAGAUCGGAAGAGCACACGU
B17: target 2 MT 5'PFS GAG 3'PFS CUA (mixed)
RNA 1: CACCCGUGCAAAAUUGCAGGGGUCUAAAACCUUCUCCAAAUUGUUUCAUCCU
RNA 2: GGGAAUGGAUCCACAUCUACGAAUUCGAGAGGAUGAAACAAUUUGGAGAAGCUAAGAUCGGAAGAGCACACGU
B18: target 2 MT 5'PFS CUU 3'PFS UCA (mixed)
RNA 1: CACCCGUGCAAAAUUGCAGGGGUCUAAAACCUUCUCCAAAUUGUUUCAUCCU
RNA 2: GGGAAUGGAUCCACAUCUACGAAUUCCUUAGGAUGAAACAAUUUGGAGAAGUCAAGAUCGGAAGAGCACACGU
B19: target 2 MT 5'PFS GGU 3'PFS CUA (mixed)
RNA 1: CACCCGUGCAAAAUUGCAGGGGUCUAAAACCUUCUCCAAAUUGUUUCAUCCU
RNA 2: GGGAAUGGAUCCACAUCUACGAAUUCGGUAGGAUGAAACAAUUUGGAGAAGCUAAGAUCGGAAGAGCACACGU
B20: target 2 MT 5'PFS AGU 3'PFS AUA (mixed)
RNA 1: CACCCGUGCAAAAUUGCAGGGGUCUAAAACCUUCUCCAAAUUGUUUCAUCCU
RNA 2: GGGAAUGGAUCCACAUCUACGAAUUCAGUAGGAUGAAACAAUUUGGAGAAGAUAAGAUCGGAAGAGCACACGU
B21: target 2 MT 5'PFS CUU 3'PFS UCC (mixed)
RNA 1: CACCCGUGCAAAAUUGCAGGGGUCUAAAACCUUCUCCAAAUUGUUUCAUCCU
RNA 2: GGGAAUGGAUCCACAUCUACGAAUUCCUUAGGAUGAAACAAUUUGGAGAAGUCCAGAUCGGAAGAGCACACGU
B22: target 2 MT 5'PFS UGG 3'PFS UUC (mixed)
RNA 1: CACCCGUGCAAAAUUGCAGGGGUCUAAAACCUUCUCCAAAUUGUUUCAUCCU
RNA 2: GGGAAUGGAUCCACAUCUACGAAUUCUGGAGGAUGAAACAAUUUGGAGAAGUUCAGAUCGGAAGAGCACACGU
B23: target 2 MT 5'PFS CAU 3'PFS UAA (mixed)
RNA 1: CACCCGUGCAAAAUUGCAGGGGUCUAAAACCUUCUCCAAAUUGUUUCAUCCU
RNA 2: GGGAAUGGAUCCACAUCUACGAAUUCCAUAGGAUGAAACAAUUUGGAGAAGUAAAGAUCGGAAGAGCACACGU
B24: target 2 MT 5'PFS CUU 3'PFS UCU (mixed)
RNA 1: CACCCGUGCAAAAUUGCAGGGGUCUAAAACCUUCUCCAAAUUGUUUCAUCCU
RNA 2: GGGAAUGGAUCCACAUCUACGAAUUCCUUAGGAUGAAACAAUUUGGAGAAGUCUAGAUCGGAAGAGCACACGU
B25: target 2 MT 5'PFS GUA 3'PFS UUC (mixed)
RNA 1: CACCCGUGCAAAAUUGCAGGGGUCUAAAACCUUCUCCAAAUUGUUUCAUCCU
RNA 2: GGGAAUGGAUCCACAUCUACGAAUUCGUAAGGAUGAAACAAUUUGGAGAAGUUCAGAUCGGAAGAGCACACGU
B26: target 2 MT 5'PFS AAG 3'PFS CAU (mixed)
RNA 1: CACCCGUGCAAAAUUGCAGGGGUCUAAAACCUUCUCCAAAUUGUUUCAUCCU
RNA 2: GGGAAUGGAUCCACAUCUACGAAUUCAAGAGGAUGAAACAAUUUGGAGAAGCAUAGAUCGGAAGAGCACACGU
B27: target 2 MT 5'PFS GGU 3'PFS CUC (mixed)
RNA 1: CACCCGUGCAAAAUUGCAGGGGUCUAAAACCUUCUCCAAAUUGUUUCAUCCU
RNA 2: GGGAAUGGAUCCACAUCUACGAAUUCGGUAGGAUGAAACAAUUUGGAGAAGCUCAGAUCGGAAGAGCACACGU

For this data set, the target named is T1, EsCas13d, nuclease-dead. As to the kind of experiment: crRNA (strand 1, pre-loaded); Mg2+; 40 mM Tris-HCl pH 7.5, 150 mM NaCl, 6 mM MgCl2, 1 mM DTT, 0.1% Tween-20, 0.2 mg/ml BSA; 25 C; 10 min per concentration, then washed. Conditions: tags: His6-TwinStrep-SUMO cleaved; N-terminal SNAP kept (SNAP-Surface 488); label: 3' end held by stalled T7 RNA polymerase.
With B1, binding was put at a Kd of 26 ± 9 nM.

On to B2, for which the Kd (as a rule, the equilibrium constant for the complex coming apart) came out at 45 ± 10 nM. The result for B3 reads 27 ± 12 nM; that for B4, 3.7 ± 0.7 nM. The result for B5 reads 14 ± 1.3 nM. The figure for B6 is 6.7 ± 0.6 nM; for B7 it is 4 ± 0.4 nM; for B8 it is 8.1 ± 0.8 nM. Molecule B9 yielded an equilibrium dissociation constant (Kd) of around 26 nM. The figure for B10 is 4.6 ± 0.4 nM; for B11 it is 9.8 ± 1 nM. The result for B12 reads 11.3 ± 1.2 nM. The figure for B13 is 62 ± 18 nM; for B14 it is 10 ± 1.7 nM. Consider B15, for which the dissociation constant Kd was 12.1 ± 2.1 nM. The result for B16 reads 5.6 ± 1.2 nM; that for B17, 7.9 ± 1.1 nM. Consider B18, for which binding was characterised by a dissociation constant (Kd) of 4.8 ± 0.5 nM. With B19, the affinity, expressed as Kd, was 12.6 ± 1.4 nM. The figure for B20 is 10.3 ± 1.5 nM; for B21 it is 8.2 ± 0.5 nM; for B22 it is 19.2 ± 2.8 nM. On to B23, for which binding was characterised by a dissociation constant (Kd) of 4.7 ± 0.8 nM. The figure for B24 is 8.1 ± 0.8 nM; for B25 it is 42 ± 11 nM; for B26 it is 3.4 ± 0.5 nM. The result for B27 reads 17.8 ± 1.9 nM.
